Residue numbers refer to the chain shown, from its start. In names and notes the source's numbering stands.
B1: F010302312 (VHH)
VHH: EVQLVESGGGVVQPGGSLRLSCAASGPVFNINRMAWYRQAPGKQRELVAYVTPTGDISYADSVKGRFTISRDGSKRVYLQMNSLRPEDTALYYCRALLQPDSYSITRTYWGQGTLVTVSS
notes: also called F0103387G04(L11V, A12V, K33R, R39Q, S50Y, S56D, T60A, W78V, S79Y, T83R, V89L, N93R, N100cI)
B2: F010301847 (VHH)
VHH: B1 VHH with G73N, R76N, I105N
notes: also called F0103387G04(L11V, A12V, K33R, R39Q, S50Y, S56D, T60A, G73N, R76N, W78V, S79Y, T83R, V89L, N93R)
B3: F010302313 (VHH)
VHH: B1 VHH with G73A
notes: also called F0103387G04(L11V, A12V, K33R, R39Q, S50Y, S56D, T60A, G73A, W78V, S79Y, T83R, V89L, N93R, N100cI)
B4: F010301848 (VHH)
VHH: B1 VHH with G73N, I105N
notes: also called F0103387G04(L11V, A12V, K33R, R39Q, S50Y, S56D, T60A, G73N, W78V, S79Y, T83R, V89L, N93R)
B5: F010301841 (VHH)
VHH: B1 VHH with A60T, V77W, Y78S, I105N
notes: also called F0103387G04(L11V, A12V, K33R, R39Q, S50Y, S56D, T83R, V89L, N93R)
B6: F010302314 (VHH)
VHH: B1 VHH with G73R
notes: also called F0103387G04(L11V, A12V, K33R, R39Q, S50Y, S56D, T60A, G73R, W78V, S79Y, T83R, V89L, N93R, N100cI)
B7: F010302317 (VHH)
VHH: B1 VHH with G73R, D101R
notes: also called F0103387G04(L11V, A12V, K33R, R39Q, S50Y, S56D, T60A, G73R, W78V, S79Y, T83R, V89L, N93R, D99R, N100cI)-FLAG3-HIS6
B8: F010301844 (VHH)
VHH: B1 VHH with A60T, R76N, V77W, Y78S, I105N
notes: also called F0103387G04(L11V, A12V, K33R, R39Q, S50Y, S56D, R76N, T83R, V89L, N93R)
B9: F010301843 (VHH)
VHH: B1 VHH with A60T, G73N, V77W, Y78S, I105N
notes: also called F0103387G04(L11V, A12V, K33R, R39Q, S50Y, S56D, G73N, T83R, V89L, N93R)
B10: F010302325 (VHH)
VHH: B1 VHH with G73R, I105N
notes: also called F0103387G04(L11V, A12V, K33R, R39Q, S50Y, S56D, T60A, G73R, W78V, S79Y, T83R, V89L, N93R)
B11: F010302315 (VHH)
VHH: B1 VHH with D101R
notes: also called F0103387G04(L11V, A12V, K33R, R39Q, S50Y, S56D, T60A, W78V, S79Y, T83R, V89L, N93R, D99R, N100cI)
B12: F010302327 (VHH)
VHH: B1 VHH with G73A, D101R, I105N
notes: also called F0103387G04(L11V, A12V, K33R, R39Q, S50Y, S56D, T60A, G73A, W78V, S79Y, T83R, V89L, N93R, D99R)
B13: F010301656 (VHH)
VHH: B1 VHH with V11L, V12A, Q39R, A60T, V77W, Y78S, R85T, L91V, I105N
notes: also called F0103387G04(K33R, S50Y, S56D, N93R)
B14: F010301846 (VHH)
VHH: B1 VHH with A60T, V77W, I105N
notes: also called F0103387G04(L11V, A12V, K33R, R39Q, S50Y, S56D, S79Y, T83R, V89L, N93R)
B15: F010302320 (VHH)
VHH: B1 VHH with G73A, I105N
notes: also called F0103387G04(L11V, A12V, K33R, R39Q, S50Y, S56D, T60A, G73A, W78V, S79Y, T83R, V89L, N93R)
B16: F010301842 (VHH)
VHH: B1 VHH with V77W, Y78S, I105N
notes: also called F0103387G04(L11V, A12V, K33R, R39Q, S50Y, S56D, T60A, T83R, V89L, N93R)
B17: F010301845 (VHH)
VHH: B1 VHH with A60T, Y78S, I105N
notes: also called F0103387G04(L11V, A12V, K33R, R39Q, S50Y, S56D, W78V, T83R, V89L, N93R)
B18: F010301866 (VHH)
VHH: B1 VHH with R76N, I105N
notes: also called F0103387G04(L11V, A12V, K33R, R39Q, S50Y, S56D, T60A, R76N, W78V, S79Y, T83R, V89L, N93R)
B19: F010302326 (VHH)
VHH: B1 VHH with D101R, I105N
notes: also called F0103387G04(L11V, A12V, K33R, R39Q, S50Y, S56D, T60A, W78V, S79Y, T83R, V89L, N93R, D99R)
B20: F010302343 (VHH)
VHH: EVQLVESGGGVVQPGGSLRLSCAASSRQFIRDVFTGWYRQAPGKQRELVARIYESGNTQYADSAKGRFTISRDNAKKTVYLQMNSLRPEDTALYYCLFSGTISTGREYRSGDYWGQGTLVTVSS
B21: F010302360 (VHH)
VHH: B20 VHH with S26H, E54N, S55E, A64V
B22: F010302348 (VHH)
VHH: B20 VHH with S26H, Q28A, V33L, Q59N
B23: F010302361 (VHH)
VHH: B20 VHH with S26H, S55G, A64V
B24: F010302351 (VHH)
VHH: B20 VHH with Q40R, A64V
B25: F010302345 (VHH)
VHH: B20 VHH with S26H, S55G
B26: F010302354 (VHH)
VHH: B20 VHH with S26H, Q28A, Q40R, A64V
B27: F010302352 (VHH)
VHH: B20 VHH with S26H, Q40R, E54N, S55E, A64V
B28: F010302346 (VHH)
VHH: B20 VHH with S26H, Q28A
B29: F010302358 (VHH)
VHH: B20 VHH with E54N, S55E, A64V
B30: F010302364 (VHH)
VHH: B20 VHH with S26H, Q28A, V33L, Q59N, A64V
B31: F010302353 (VHH)
VHH: B20 VHH with S26H, Q40R, S55G, A64V
B32: F010302362 (VHH)
VHH: B20 VHH with S26H, Q28A, A64V
B33: F010302350 (VHH)
VHH: B20 VHH with Q40R, E54N, S55E, A64V
B34: F010302356 (VHH)
VHH: B20 VHH with S26H, Q28A, V33L, Q40R, Q59N, A64V
B35: F010302359 (VHH)
VHH: B20 VHH with A64V
B36: F010302344 (VHH)
VHH: B20 VHH with S26H, E54N, S55E

These binders were tested against T1, rhNav1.7α + β1-β2-β3 (rhesus Nav1.7α co-expressed with Navβ1, Navβ2 and Navβ3 on cells) (rhesus monkey (α subunit); β subunits …) (assay: binding FACS, CHO FlpIn cells).
T1 construct: also called rhNav1.7-beta1-beta2-beta3; CHO FlpIn rhNav1.7α + β1-β2-β3
Procedure, shortened: (§1)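 FLAG3-tagged ISVD, 30 min, 4° C, FACS buffer (PBS/10% FBS/NaN₃); 1×10^5 cells/well; detection murine anti-Flag; PI 1 μg/mL live gate; washes between steps.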

| Bmax [%] | EC50 [nM] | Binder |
| --- | --- | --- |
| 100 | 18 | B1 |
| 100 | 29 | B2 |
| 96 | 34 | B3 |
| 100 | 19 | B4 |
| 100 | 7.6 | B5 |
| 98 | 14 | B6 |
| 13 | 19 | B7 |
| 100 | 11 | B8 |
| 100 | 9.3 | B9 |
| 99 | 8.7 | B10 |
| 23 | 39 | B11 |
| 7 | 93 | B12 |
| 100 | 8 | B13 |
| 100 | 11 | B14 |
| 100 | 21 | B15 |
| 100 | 7.9 | B16 |
| 100 | 8 | B17 |
| 100 | 18 | B18 |
| 32 | 18 | B19 |

The binders below were run against T2, huNav1.7α + β1-β2-β3 (human Nav1.7α co-expressed with human Navβ1, Navβ2 and Navβ3 on cells) (human) (assay: binding FACS, CHO FlpIn cells).
T2 construct: also called huNav1.7-beta1-beta2-beta3; CHO FlpIn huNav1.7α + β1-β2-β3
Procedure, shortened: as §1

| Bmax [%] | EC50 [nM] | Binder |
| --- | --- | --- |
| 100 | 24 | B1 |
| 100 | 67 | B2 |
| 100 | 38 | B3 |
| 100 | 44 | B4 |
| 100 | 14 | B5 |
| 100 | 16 | B6 |
| 91 | 6.8 | B7 |
| 100 | 23 | B8 |
| 100 | 18 | B9 |
| 96 | 13 | B10 |
| 100 | 7.2 | B11 |
| 87 | 7 | B12 |
| 100 | 17 | B13 |
| 100 | 21 | B14 |
| 99 | 30 | B15 |
| 100 | 15 | B16 |
| 100 | 17 | B17 |
| 100 | 38 | B18 |
| 89 | 6.2 | B19 |

What follows are binders tested against T3, huNav1.7α + β1-β2-β3 (human, UniProt Q15858 1-1988; A5A6L6 19-218; O60939 30-215; Q2KI11 23-215) (assay: binding FACS, CHO FlpIn).
T3 construct: also called huNav1.7-beta1-beta2-beta3; huNav1.7-β1-β2-β3
Experimental: (§2) Binding of the ISVDs to cell-expressed Nav1.7α was detected via murine anti-Flag (Sigma, catalog #F1804). Briefly, cells were resuspended in FACS buffer (PBS, 10% FBS, NaN₃) and transferred to a 96-well V-bottom plate at 1×10^5 cells/well. Purified FLAG3-tagged ISVD was diluted in FACS buffer and added to the cells for 30 minutes at 4° C. […] Prior to the read-out, the samples were resuspended in 1 μg/mL propidium iodide (Sigma, catalog #P4170) to exclude dead cells. Between each step, the cells were centrifuged for 5 minutes at 200 grams and washed with 100 μL/well FACS buffer.

| Bmax [%] | EC50 [nM] | Binder |
| --- | --- | --- |
| 100 | 6.4 | B20 |
| 100 | 3.5 | B21 |
| 100 | 6.7 | B22 |
| 100 | 4.8 | B23 |
| 100 | 5.6 | B24 |
| 100 | 4.9 | B25 |
| 100 | 4.2 | B26 |
| 100 | 3.6 | B27 |
| 100 | 5 | B28 |
| 100 | 4.5 | B29 |
| 100 | 7.2 | B30 |
| 100 | 4.2 | B31 |
| 100 | 5.4 | B32 |
| 100 | 3.5 | B33 |
| 100 | 5.3 | B34 |
| 100 | 6.4 | B35 |
| 100 | 4.3 | B36 |

These binders were tested against T4, rhNav1.7α + β1-β2-β3 (rhesus monkey) (assay: binding FACS, CHO FlpIn).
T4 construct: also called rhNav1.7-beta1-beta2-beta3; rhNav1.7-β1-β2-β3
Experimental: as §2

| Bmax [%] | EC50 [nM] | Binder |
| --- | --- | --- |
| 84 | 18 | B20 |
| 58 | 15 | B21 |
| 95 | 14 | B22 |
| 92 | 11 | B23 |
| 72 | 15 | B24 |
| 96 | 12 | B25 |
| 96 | 7.9 | B26 |
| 60 | 11 | B27 |
| 99 | 12 | B28 |
| 37 | 37 | B29 |
| 74 | 17 | B30 |
| 93 | 7.9 | B31 |
| 89 | 14 | B32 |
| 46 | 15 | B33 |
| 81 | 12 | B34 |
| 66 | 24 | B35 |
| 78 | 13 | B36 |
